The values that follow are results of earlier work, collected in publication PMC7850986.

One data set has as its target IFNAR1 (Homo sapiens) (UniProt P17181).
The next data set deals with IFNAR2 (Homo sapiens) (UniProt P48551).
UniProt P48551, sequence (P48551 27-243): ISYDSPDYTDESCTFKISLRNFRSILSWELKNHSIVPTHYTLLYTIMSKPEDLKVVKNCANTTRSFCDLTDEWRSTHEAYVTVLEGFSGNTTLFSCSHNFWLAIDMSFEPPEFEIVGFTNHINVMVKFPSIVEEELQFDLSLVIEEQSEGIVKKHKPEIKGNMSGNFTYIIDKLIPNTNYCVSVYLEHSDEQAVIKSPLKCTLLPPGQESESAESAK

UniProt P17181, sequence (P17181 28-436): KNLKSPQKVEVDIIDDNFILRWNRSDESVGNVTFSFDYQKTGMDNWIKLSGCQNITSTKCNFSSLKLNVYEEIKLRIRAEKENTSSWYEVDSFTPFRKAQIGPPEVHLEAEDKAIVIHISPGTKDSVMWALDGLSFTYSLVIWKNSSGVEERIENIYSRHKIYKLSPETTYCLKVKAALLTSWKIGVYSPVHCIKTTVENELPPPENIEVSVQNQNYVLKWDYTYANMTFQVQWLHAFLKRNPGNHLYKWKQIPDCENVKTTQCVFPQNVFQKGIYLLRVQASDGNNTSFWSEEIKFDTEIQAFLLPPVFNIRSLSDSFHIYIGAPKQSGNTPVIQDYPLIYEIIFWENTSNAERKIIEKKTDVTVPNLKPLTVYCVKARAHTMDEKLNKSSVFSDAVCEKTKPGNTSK

By Kd is commonly meant the constant that tells how readily two partners part at equilibrium. IFNβ (from UniProt P01574): the Kd is 0.1 µM in the data set with IFNAR1 (Homo sapiens) and 0.0001 µM in the data set with IFNAR2 (Homo sapiens).
